Legend:
[1] = target: T1, US28 (human cytomegalovirus, UniProt P69332 1-354); test: cell-based or functional assay
T1 sequence: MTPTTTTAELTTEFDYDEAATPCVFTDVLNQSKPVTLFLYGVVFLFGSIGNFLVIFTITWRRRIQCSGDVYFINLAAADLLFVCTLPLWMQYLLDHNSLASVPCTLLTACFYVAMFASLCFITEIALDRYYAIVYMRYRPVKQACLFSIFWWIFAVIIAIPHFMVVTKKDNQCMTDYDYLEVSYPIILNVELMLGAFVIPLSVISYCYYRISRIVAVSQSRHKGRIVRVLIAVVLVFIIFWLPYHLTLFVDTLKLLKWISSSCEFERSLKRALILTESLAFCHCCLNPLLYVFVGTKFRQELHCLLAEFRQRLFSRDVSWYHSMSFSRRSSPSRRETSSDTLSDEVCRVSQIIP

[2] = target: T2, CX3CR1 (human, UniProt P49238 1-355); test: cell-based or functional assay
T2 sequence: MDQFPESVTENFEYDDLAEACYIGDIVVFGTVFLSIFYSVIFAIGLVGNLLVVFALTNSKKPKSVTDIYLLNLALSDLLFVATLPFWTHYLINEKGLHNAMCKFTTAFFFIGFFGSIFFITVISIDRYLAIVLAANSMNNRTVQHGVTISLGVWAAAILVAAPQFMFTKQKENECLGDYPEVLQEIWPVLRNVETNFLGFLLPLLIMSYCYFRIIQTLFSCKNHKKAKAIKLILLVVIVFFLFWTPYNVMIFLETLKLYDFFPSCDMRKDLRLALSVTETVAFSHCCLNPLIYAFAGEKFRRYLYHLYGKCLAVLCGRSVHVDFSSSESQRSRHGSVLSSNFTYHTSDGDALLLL

B1: SYN001 (other)
chain: MQHHGVTKCNITCSKMTSKIPVALLIHYQQNQASCGKRAIILETRQHRLACADPKEQWVKDAMQHLDRQAAALTRNRQPRGWEQLEQSGYPVQRLVALYLAARLSWNQVDQVIRNALASPGSGGDLGEAIREQPEQARLALTLAAAESERFVRQGTGNDEAGAASGPADSGDALLERNYPTGAEFLGDGGDISFSTRGTQNWTVERLLQAHRQLEERGYVFVGYHGTFLEAAQSIVFGGVRARSQDLDAIWRGFYIAGDPALAYGYAQDQEPDARGRIRNGALLRVYVPRSSLPGFYRTGLTLAAPEAAGEVERLIGHPLPLRLDAITGPEEEGGRLETILGWPLAERTVVIPSAIPTDPRNVGGDLDPSSIPDKEQAISALPDYASQPGKPPKDE
Log IC50 (cell killing) [1]: -10.7 | Log IC50 (cell killing) [2]: -7.82

From patent US20220288160A1 (SYNKLINO A S, published 2022)
